According to the Human Domainome abundance scans (Beltran et al. 2025):
± gives the uncertainty stated by the source.

B1: POU domain, class 4, transcription factor 3, residues 185 to 256; numbered along this chain, Q15319 (parent)
chain: RELEAFAERFKQRRIKLGVTQADVGAALANLKIPGVGSLSQSTICRFESLTLSHNNMIALKPVLQAWLEEAE

Variants of: B1
Test: abundance fitness (aPCA) (normalised: wild type 0, dead -1); higher = more abundant; growth selection in yeast, the domain comes from the species named
Conditions: Homo sapiens

Variant	abundance fitness
V19K	0.078 ± 0.029
V19F	0.03 ± 0.048
V19G	-0.391 ± 0.25
E72F	-0.63 ± 0.043
E72H	-0.378 ± 0.053
E72A	-0.31 ± 0.03
E72D	-0.111 ± 0.042
E72L	-0.363 ± 0.024
E72Y	-0.544 ± 0.054
E72V	-0.265 ± 0.025
E72R	-0.526 ± 0.035
E72M	-0.36 ± 0.038
R13C	-0.265 ± 0.043
R13H	0.151 ± 0.13
R13Q	-0.069 ± 0.18
R13W	-0.297 ± 0.039
R13L	-0.139 ± 0.037
R13A	-0.01 ± 0.055
R13V	-0.018 ± 0.033
R13F	-0.247 ± 0.055
S42I	-0.363 ± 0.15
S42P	-0.428 ± 0.07
L3V	0.074 ± 0.13
L3M	-0.261 ± 0.093

Variant	abundance fitness
L3N	-0.605 ± 0.12
I33Y	-0.105 ± 0.12
I33N	-0.341 ± 0.16
K61F	-0.36 ± 0.055
K61Q	-0.222 ± 0.11
W67H	-0.795 ± 0.11
W67Q	-1.02 ± 0.24
W67N	-0.491 ± 0.16
G35N	-0.121 ± 0.052
G35S	-0.193 ± 0.057
G35K	-0.291 ± 0.051
G35P	-0.285 ± 0.06
T20N	-0.318 ± 0.089
T20P	-0.273 ± 0.026
T20E	-0.18 ± 0.043
T20A	-0.229 ± 0.031
T20H	-0.221 ± 0.068
T20S	-0.095 ± 0.073
V63A	-0.135 ± 0.095
V63G	-0.545 ± 0.06
V63K	-0.35 ± 0.34
V63M	-0.085 ± 0.093
V63S	-0.162 ± 0.12
V63P	-0.161 ± 0.087

Variant	abundance fitness
V63D	-0.585 ± 0.27
A66R	-0.133 ± 0.08
A66L	-0.048 ± 0.33
R14V	-0.759 ± 0.071
R14I	-0.656 ± 0.19
R14A	-1.1 ± 0.18
R14D	-0.454 ± 0.16
C45W	-0.234 ± 0.32
C45Q	0.003 ± 0.063
K32W	-0.162 ± 0.052
K32R	-0.039 ± 0.035
K32A	-0.056 ± 0.038
T43V	-0.031 ± 0.045
T43H	-0.296 ± 0.17
T43G	-0.65 ± 0.088
T43L	-0.012 ± 0.042
T43E	-0.235 ± 0.26
T43K	-0.153 ± 0.096
T43D	-0.29 ± 0.24
T43F	-0.425 ± 0.17
K11Q	-0.136 ± 0.091
K11F	-0.478 ± 0.063
K11V	-0.186 ± 0.12
K11H	-0.1 ± 0.17

Variant	abundance fitness
K11E	-0.945 ± 0.3
K11M	-0.125 ± 0.049
E2Y	-0.686 ± 0.21
E2L	-0.421 ± 0.04
E2H	-0.221 ± 0.17
E2I	-0.664 ± 0.37
E2D	0.075 ± 0.03
Q12Y	0.121 ± 0.24
Q12M	-0.034 ± 0.048
Q12A	0.006 ± 0.095
Q12I	-0.172 ± 0.089
Q12T	-0.113 ± 0.056
Q12G	-0.377 ± 0.2
S53K	-0.222 ± 0.093
S53P	0.042 ± 0.09
S53A	0.025 ± 0.071
S53E	-0.065 ± 0.084
S53Q	-0.403 ± 0.14
F10V	-0.765 ± 0.1
R9T	0.016 ± 0.054
R9N	-0.016 ± 0.1
R9P	-0.642 ± 0.48
R9F	-0.33 ± 0.039
R9K	0.022 ± 0.047

Variant	abundance fitness
R9Y	-0.025 ± 0.091
F47N	-1.09 ± 0.27
F47G	-1.01 ± 0.23
F47A	-0.866 ± 0.14
F47Q	-0.875 ± 0.13
A29V	-0.2 ± 0.072
A29Y	-0.305 ± 0.082
A29F	-0.086 ± 0.12
A29E	0.006 ± 0.18
A29D	-0.25 ± 0.12
S40P	-0.154 ± 0.064
S40H	-0.013 ± 0.22
S40W	-0.42 ± 0.23
S40D	0.037 ± 0.22
F6D	-0.293 ± 0.28
F6K	-1.03 ± 0.42
F6S	-0.338 ± 0.3
F6M	-0.327 ± 0.25
F6V	-0.701 ± 0.17
L60Q	-0.376 ± 0.24
L60K	-0.859 ± 0.3
L50E	-0.154 ± 0.063
L50S	0.041 ± 0.22
L50G	0.043 ± 0.034

Variant	abundance fitness
L50T	-0.101 ± 0.027
L50K	-0.012 ± 0.073
L50R	0.053 ± 0.03
L31C	0.352 ± 0.23
L31V	0.086 ± 0.12
L31E	0.143 ± 0.37
L31G	-0.59 ± 0.42
L31Q	-0.202 ± 0.28
L31A	0.204 ± 0.23
L31S	-0.094 ± 0.16
L31M	-0.284 ± 0.18
N30V	-0.177 ± 0.046
N30T	-0.005 ± 0.11
N30C	-0.261 ± 0.15
N30R	-0.148 ± 0.078
N30Q	-0.022 ± 0.099
N30D	-0.184 ± 0.5
N30M	-0.239 ± 0.12
N30G	-0.058 ± 0.12
M57R	-0.524 ± 0.089
M57Q	-0.359 ± 0.12
S38R	-0.052 ± 0.14
S38N	0.022 ± 0.021
S38C	-0.27 ± 0.21

Variant	abundance fitness
S38Y	-0.055 ± 0.051
S38W	-0.389 ± 0.22
A22N	-0.02 ± 0.074
A22G	-0.055 ± 0.036
A22I	-0.5 ± 0.053
A22S	-0.064 ± 0.035
A22F	-0.163 ± 0.034
A22Q	-0.214 ± 0.12
E8Q	0.073 ± 0.091
E8C	-0.212 ± 0.071
E8T	0.053 ± 0.065
E8A	0.022 ± 0.081
E8G	-0.098 ± 0.051
E8Y	-0.236 ± 0.13
E8F	-0.005 ± 0.12
E8M	-0.003 ± 0.059
E8W	-0.2 ± 0.051
E8P	-0.698 ± 0.19
E69I	-0.106 ± 0.059
E69V	-0.046 ± 0.037
E69Y	-0.059 ± 0.069
E69Q	-0.091 ± 0.061
E69M	-0.041 ± 0.048
E69R	-0.065 ± 0.033

Variant	abundance fitness
E69G	-0.194 ± 0.049
Q65L	-0.486 ± 0.17
Q65C	-0.1 ± 0.21
Q65G	0.011 ± 0.14
L68I	-0.056 ± 0.069
L68K	-0.901 ± 0.054
L68V	-0.13 ± 0.026
L68C	-0.257 ± 0.072
L68T	-0.46 ± 0.038
L68P	-1.06 ± 0.14
L68N	-0.912 ± 0.12
L68G	-0.685 ± 0.042
L68E	-0.503 ± 0.042
Q21K	-0.285 ± 0.13
Q21M	-0.502 ± 0.17
Q21P	-0.238 ± 0.38
Q21T	-0.193 ± 0.21
V24R	-0.83 ± 0.038
V24W	-0.61 ± 0.055
V24G	-0.858 ± 0.075
V24M	-0.301 ± 0.041
V24P	-0.842 ± 0.044
V24C	-0.223 ± 0.046
V24D	-0.675 ± 0.2

Variant	abundance fitness
V24Q	-0.825 ± 0.075
V24Y	-0.962 ± 0.11
V24K	-0.937 ± 0.087
L17N	-0.474 ± 0.47
D23T	-0.307 ± 0.18
D23F	-0.208 ± 0.21
L39V	0.034 ± 0.15
L39W	-0.596 ± 0.37
L39R	-0.606 ± 0.15
L39S	-0.109 ± 0.23
L39A	-0.053 ± 0.15
L39F	-0.687 ± 0.5
P34V	-0.271 ± 0.14
P34Q	-0.458 ± 0.19
P34R	-0.353 ± 0.12
P34K	-0.433 ± 0.33
P34C	-0.137 ± 0.16
P34Y	-0.379 ± 0.14
S49M	-0.117 ± 0.11
S49E	0.102 ± 0.071
S49F	-0.515 ± 0.11
S49Y	-0.209 ± 0.15
S49C	-0.127 ± 0.12
S49K	-0.039 ± 0.1

Variant	abundance fitness
S49P	-0.957 ± 0.14
S49N	-0.005 ± 0.13
E70M	-0.253 ± 0.048
E70F	-0.397 ± 0.043
E70Q	-0.084 ± 0.055
E70A	-0.098 ± 0.042
E70R	-0.036 ± 0.033
E70C	-0.271 ± 0.045
E70K	-0.03 ± 0.053
E70G	-0.095 ± 0.039
I15S	-0.183 ± 0.12
I15D	-0.229 ± 0.071
I15N	-0.147 ± 0.13
I15W	-0.527 ± 0.32
I15F	-0.32 ± 0.078
A71S	-0.108 ± 0.039
A71T	-0.085 ± 0.062
A71R	-0.005 ± 0.043
A71I	-0.178 ± 0.037
A71D	-0.574 ± 0.12
A71N	-0.032 ± 0.036
A71F	-0.139 ± 0.034
R1L	-0.125 ± 0.049
R1E	-0.093 ± 0.1

Variant	abundance fitness
R1S	-0.109 ± 0.084
T51Q	-0.074 ± 0.11
T51F	-0.578 ± 0.31
R46I	-0.806 ± 0.16
R46D	0.096 ± 0.13
R46W	-0.334 ± 0.14
R46N	0.094 ± 0.081
R46E	0.025 ± 0.17
R46Y	-0.106 ± 0.18
R46K	0.055 ± 0.074
R46F	-0.519 ± 0.13
R46T	-0.661 ± 0.083
L52P	-0.984 ± 0.49
L64V	-0.425 ± 0.024
L64M	-0.17 ± 0.034
L64I	-0.402 ± 0.098
A7P	-0.579 ± 0.042
A7F	-0.649 ± 0.1
A7T	-0.235 ± 0.063
A7Q	-0.689 ± 0.061
A7L	-0.581 ± 0.034
A7M	-0.784 ± 0.13
A7K	-0.398 ± 0.2
A7G	-0.646 ± 0.031

Variant	abundance fitness
P62G	-0.244 ± 0.036
P62N	-0.371 ± 0.094
P62I	-0.753 ± 0.1
P62E	-0.23 ± 0.049
P62T	-0.221 ± 0.042
P62S	-0.188 ± 0.031
A27R	-0.384 ± 0.14
A27L	-0.233 ± 0.064
A27M	-0.176 ± 0.11
A27D	-0.431 ± 0.23
A5G	-0.033 ± 0.085
A5M	0.109 ± 0.099
A5E	-0.155 ± 0.26
A5C	-0.552 ± 0.3
A5S	-0.002 ± 0.19
A26R	-0.017 ± 0.028
A26Q	-0.029 ± 0.045
A26Y	-0.144 ± 0.044
A26C	-0.08 ± 0.04
A26W	-0.152 ± 0.036
A26N	-0.041 ± 0.053
A26G	-0.15 ± 0.03
A26P	-0.472 ± 0.053
A26E	-0.051 ± 0.044

Variant	abundance fitness
A26T	-0.108 ± 0.039
A26D	-0.01 ± 0.052
L28Y	-0.49 ± 0.23
L28D	-0.716 ± 0.16
L28V	-0.126 ± 0.079
L28E	-0.985 ± 0.27
L28F	-0.239 ± 0.2
E4L	-0.214 ± 0.064
E4Y	-0.125 ± 0.07
E4R	0.041 ± 0.11
E4M	0.01 ± 0.11
G37S	-0.001 ± 0.082
G37A	-0.127 ± 0.053
G37H	0.011 ± 0.26
G37D	-0.093 ± 0.15
G37K	-0.018 ± 0.036
K16R	-0.01 ± 0.027
K16M	0.008 ± 0.039
K16E	0.077 ± 0.067
K16D	-0.132 ± 0.32
K16I	-0.192 ± 0.1
K16Y	-0.195 ± 0.091
I58S	-0.034 ± 0.055
I58T	-0.044 ± 0.072

Variant	abundance fitness
I58E	0.071 ± 0.34
I58H	-0.033 ± 0.1
I58N	-0.049 ± 0.05
I58Y	-0.123 ± 0.082
I58F	0.078 ± 0.14
V36F	-0.043 ± 0.071
V36R	-0.332 ± 0.052
V36W	-0.091 ± 0.11
V36T	-0.3 ± 0.079
V36Y	-0.121 ± 0.19
V36P	-0.398 ± 0.06
G18N	-0.205 ± 0.33
G18V	-0.997 ± 0.15
G18K	-0.296 ± 0.15
G18E	-0.514 ± 0.14
G18D	-0.463 ± 0.21
G25F	-0.13 ± 0.098
G25A	0.117 ± 0.11
G25Q	-0.531 ± 0.36
G25C	0.143 ± 0.099
G25R	-0.203 ± 0.12
G25S	-0.13 ± 0.13
